# Changes are numbered by the printed parent chain.
# B1: ADI-49186 (antibody, V domains shown)
# VH: QVQLVESGGGVVQPGRSLRLSCAASGFTFSNSGMHWVRQAPGQGLEWVALISYTGETKYYSDSLKARFTISRDNSKNTLYLQMSSLSNEDTAVYYCARDYYASGDGYFDYWGQGTLVTVSS
# VL: DIVLTQSPDSLAVSLGERATINCKSSQSVLFGSNQKSCLAWYQQKPGQSPKLLIHWASTRESGVPDRFSGSGSGTDFTLTISSLQAEDVAVYYCQQYYSTPRTFGQGTKVEIK
# notes: full-length IgG; also called Antibody Number 38
# B2: ADI-42230 (antibody, V domains shown)
# VH: QVQLVESGGGVVQPGRSLRLSCAASGFTFSSYAMHWVRQAPGKGLEWVAVISHDGSNKYYADSVKGRFTISRDNSKNTLYLQINSLRAEDTAVYYCPRDGLPGANQYFFYYGMDVWGQGTTVTVSS
# VL: DIQVTQSPSSLSASVGDRVTITCRASQGISNYLAWYQQKPGKVPKLLIFAASTLRSGVPSRFRGSGSGTDFTLTISSLQPEDVATYYCQKYNSAPLTFGGGTKVEIK
# notes: full-length IgG; also called Antibody Number 47
# B3: ADI-49188 (antibody, V domains shown)
# VH: EVQLLESGPGLVRPSGTLSLTCAVSGGSISTTDWWSWVRQPPGKGLEWIGEINQSGSTSYSPSFKSRVSISVDKSKRQFSLKLTSVTAADTAVYYCARDSWSGPTRNWFDPWGRGTLVTVSS
# VL: QSVVTQPPSVSAAPGQKVTISCSGRSSNIGNSDVSWYQQFPGRAPKLLIYDNDERPSGIPDRFSGSKSGTSATLDITGLQTGDEADYYCGTWDSSLGGVIFGGGTKVTVL
# notes: full-length IgG; also called Antibody Number 31
# B4: ADI-42831 (antibody, V domains shown)
# VH: EVQLVESGGGLVQPGGSLRLSCAASGFTFINYAMTWVRQAPGKGLEWVSAISGNGDGTYYADSVKGRFTLSRDNAKNTIYLHMSALRDEDTALYYCAKDQGVTTDWPSDYWGQGTLVTVSS
# VL: DIRLTQSPSTLSASVGDRVTVTCRASQNINTYLAWYQQIPGKAPRLLIYRASTLESGVPSRFSGSGSGTEFTLTINSLQPDDYATYYCQHYETYSVRFGQGTKVEIK
# notes: full-length IgG; also called Antibody Number 46
# B5: ADI-42194 (antibody, V domains shown)
# VH: EVQLQESGPGLVKPSETLSLTCTVSGGSVSSGSYYWSWIRQPPGKGLEWIGYIYDSGNTNYNPSLKSRVTISVDTSKRQFSLRLTSVTAADTAVYYCAKVEEDGYTNVVRDYWGQGTLVTVSS
# VL: EIVMTQSPATLSLSPGERATLSCRASQSVSNYLAWYQQKPGQAPRLLISDASSRATGIPARFRGSGSGTDFTLTISSLEPEDFAVYYCLQRTNWPFTFGPGTKVEIK
# notes: full-length IgG; also called Antibody Number 29
# B6: ADI-42847 (antibody, V domains shown)
# VH: EVQLLESGPRLVKPSETLSLTCTVSGGSVRGGSHYWSWIRQPPGKGLEWIGYVYDSGSTNYNPSLKSRVSISVDMSKKQFSLKLRSVTAADTAVYHCVRVEEYVNNEEVRDYWGQGTMVTVSS
# VL: B5 VL with E1D, S7T, N31S, S49Y, D50G, S53N, R63S
# notes: full-length IgG; also called Antibody Number 48
# B7: ADI-42809 (antibody, V domains shown)
# VH: QVQLVESGPGLVKPSGTLSLTCAVSGDSISSTNWWSWVRQPPGKGLEYIGEIFHSGSTNYNPFLKSRVTISVDKSKNHFSLKLSSVTAADTAVYYCARGPLKSYWYFDLWGRGTLVTVSS
# VL: QSVLTQPPSVSAAPGQKVTISCSGSSSNIGNNYVSWYQQLPGTAPKLLIYDNNKRPSGIPDRFSGSKSGTSATLGITGLQTGDEADYYCGTWDTSLSAGRVFGGGTKLTVL
# notes: full-length IgG; also called Antibody Number 34
# B8: ADI-46586 (antibody, V domains shown)
# VH: EVQLVESGGGLVKPGGSLRLSCAASGFTFTDYYMSWIRQAPGKGLEWVSYITSSGNTKYYADSVKGRFTISRDNAKNSLFLQMNSLRAEDTAVYFCARDGSMVNAIDYWGQGTLVTVSS
# VL: B7 VL with S2P, N32D, A85G, T94S, G99A, R100W, L108V
# notes: full-length IgG; also called Antibody Number 43
# B9: ADI-48955 (antibody, V domains shown)
# VH: B8 VH with E1Q, E6Q, K13N, T52S, K58R, F80S, A88P, V93I, F95Y, M102L
# VL: B7 VL with I29F, N32D, N53D, G99A, R100W, L108V
# notes: full-length IgG; also called Antibody Number 40
# B10: ADI-42830 (antibody, V domains shown)
# VH: EVQLLESGPGLVRPSGTLSLTCAVSGASISSNHWWTWVRQPPGKGLEWIGEIYHSGSPTYNPSLKSRVTISVDKSKNQFSLKLNSVTAADTAVYYCASTLWGGPLSVASDYWGQGTLVTVSS
# VL: B7 VL with N32Y, L40V, Q80H, D86E, T94S, L96P
# notes: full-length IgG; also called Antibody Number 37
# B11: ADI-42818 (antibody, V domains shown)
# VH: EVQLVESGPGLVKPSGTLSLTCAVSGGSITGSNWWSWVRQPPGKGLEWIGEIYHTGSTSYNPSLKSRVTISVDNSKNHFSLRLTSVTAADTAVYYCARVRWSGSTSWDLDYWGQGTLVTVSS
# VL: B7 VL with L4V, K67T, D86V, L96P, R100G, L108V
# notes: full-length IgG; also called Antibody Number 41
# B12: ADI-42151 (antibody, V domains shown)
# VH: B7 VH with V5Q, D27G, T32S, Y48W, F53Y, N59T, F63S, H78Q, S103T
# VL: B7 VL with L4V
# notes: full-length IgG; also called Antibody Number 51
# B13: ADI-42188 (antibody, V domains shown)
# VH: EVQLLESGPGLVKPSGTLSLTCAVSGGSISSGNWWSWVRQPPGKGLEWIGEIYHSGSANYNPSLKSRVTISVDKSKNQFSLKLTSVTAADTAVYYCARVVWEYSNAWCVDFWGQGTTVTVSS
# VL: QSVLTQPPSVSAAPGQKVTISCSGSSSNIGNNYVSWYQQLPGTAPKLLIYDNNKRPSGIPDRFSGSKSGTSATLGITGLQTGDEADYYCETWDSSLGVVVFGGGTKLTVL
# notes: full-length IgG; also called Antibody Number 32
# B14: ADI-42144 (antibody, V domains shown)
# VH: QVQLVESGGGVVQPGRSLRLSCAASGFTFSSYTMHWVRQAPGKGLEWVAVISYDGSNKYYADSVKGRFTISRDNSKNTLYLQMNSLRAEDTAVYYCARGGDYGDYESNNPAEYFQHWGQGTLVTVSS
# VL: QSVLTQPPSVSGAPGQRVTISCTGSSSNIGAGYDVHWYQQLPGTAPKLLIYGNSNRPSGVPDRFSGSKSGTSASLAITGLQAEDEADYYCQSYDSSLSGHVVFGGGTKLTVL
# notes: full-length IgG; also called Antibody Number 26
# B15: ADI-46596 (antibody, V domains shown)
# VH: QVQLQESGPGLVKPSGTLSLTCAVSGGSISSNNWWSWVRQPPGKGLEWIGDTYHSGSPSYNPSLKSRVTISVDKSKNEFSLKLSSVTAADTAVYFCARYCSGATCYGSNGMDVWGQGTTVTVSS
# VL: QSVLTQPPSMSAAPGQKVTISCSGSSSNIGNNYVSWYRQLPGTAPKLLIYDNDKRPSGIPDRFSGSKSGTTATLGITGLQTGDEAVYYCGTWDFRLSALFGGGTKLTVL
# notes: full-length IgG; also called Antibody Number 35
# B16: ADI-46591 (antibody, V domains shown)
# VH: QVQLQQWGPELVKPSGTLSLTCTVSGGSISSISWWSWVRQSPGKGLEWIGEINHSGSTVYNPSLKSRVTISVDKSKKQFSLKLRSVTAADTAVYYCVRYCSSTSCYGLNGMDVWGQGTTVTVSS
# VL: B15 VL with M10V, N31S, Y33F, R38Q, D53N, T71S, G75A, V86D, F94T, L106V
# notes: full-length IgG; also called Antibody Number 39
# B17: ADI-50219 (antibody, V domains shown)
# VH: QVQLQESGPGLVKPSETLSLTCTVSGDSISVSYWSWIRQFPGKGLEWIGYIYNSGNANYNPSLESRVTISIDTSKNRFSLRLSSVTAADTAVYYCAGHREDPYGAYGASWGQGTLVTVSS
# VL: EIVLTQSPATLSSSPGERATLSCRASQSVNSYLVWYQQKPGQAPRLLIYDASNRATGIPARFTGSGSGTDFTLTISSLEPEDFAVYYCQQRTNWPFTFGQGTKVDIK
# notes: full-length IgG; also called Antibody Number 27
# B18: ADI-48897 (antibody, V domains shown)
# VH: EVQLLESGPGLVKPSETLSLTCTVSGGSLSSDSHFWGWIRQPPGKGLEWIGYIYYSGNANYNPSLQSRVTISLDKSKNQFSLRLTSVTAADTAVYYCASRKEVRGTEDYFDYWGQGTLVTVSS
# VL: B17 VL with S13L, S31R, V34A, T63S, Q89H, F96W, D105E
# notes: full-length IgG; also called Antibody Number 28
# B19: ADI-49189 (antibody, V domains shown)
# VH: EVQLVESGGGLVKPGGSLRLSCAASGFTFSDYYMSWIRQAPGKGLECIACISSSGSMIYYADSVKGRFTISRDNAKNSLYLQLNSLRVEDTAVYYCAREGTRGRMDWGQGTLVTVSS
# VL: QSVLTQPASVSGSPGQSITISCTGTSSDIGGYNYVSWYQQHPGKVPKLVIYDVSNRPSGVSNRFSGSKSGNTASLTISGLQAEDEADYYCSSYTSGTTLGVFGTGTKLTVL
# notes: full-length IgG; also called Antibody Number 30
# B20: ADI-50531 (antibody, V domains shown)
# VH: EVTLKESGPTLVKPTQTLTLTCTFSGFSLSTSGVGVGWIRQPPGKALEWLALIYWDDDKRYSPSLKSRLTITKDTSKNQVVLTMTNMDPVDTATYYCAHSPRRITMVRGVIITWGDGMDVWGQGTTVTVSS
# VL: B19 VL with S2P, I29V, V45A, V49M, G96S, T97S, G100A, T104G
# notes: full-length IgG; also called Antibody Number 42
# B21: ADI-50205 (antibody, V domains shown)
# VH: QVQLQESGGGVVQPGRSLRLSCAASGFTFSNFGMHWVRQAPGKGLEWVAIISYDRSNKDYADSVKGRFTISRDNSKNTLYLQMNSLRAEDTAVYYCAKDQCGGDCTADYWGQGTLVTVSS
# VL: QSVLIQPASVSGSPGQSITISCTGTSSDVGGDKYVSWYQQHPGKAPKLVIYEVSNRPSGVSNRFSGSKSGNTASLTISGLQAEDEADYYCSSYTSSGTPVVCGGGTKVTVL
# notes: full-length IgG; also called Antibody Number 36
# B22: ADI-49138 (antibody, V domains shown)
# VH: QVQLVESGGGVVQPGRSLRLSCAASGFTFSNSGMHWVRQAPGKGLEWVSVIWYDESNKYYADSVKGRFTISRDNSKNTVYLQMNTLRAEDTAVYYCARDAYASGDGGIDYWGQGALVTVSS
# VL: QPVLTQSASVSGSPGQSITISCTGTSSDVGGYKYVSWYQQHPGKAPKLMIYEVSNRPSGVSIRFSGSKSGNTASLTISGLQAADEADYYCSSYRSSGTPYVFGTGTKVTVL
# notes: full-length IgG; also called Antibody Number 44
# B23: ADI-50026 (antibody, V domains shown)
# VH: EVQLLESGGGVVQPGRSLRLSCAASGFTFTTYAMHWVRQAPGKGLEWVAAVSYDGNNKYYADSVKGRFTISRDNSRNTLYLQMNSLRAEDTAVYFCARNTYYDRSGLIAYWGQGALVTVSS
# VL: DIQVTQSPSSLSASVGDRVTITCQASQDISNYLNWYQHKPGRAPKLLIYDASNLERGVPSRFSGSGSGTDFTFTISSLQPEDIATYYCQQYDNLSRLTFGGGTKLEIK
# notes: full-length IgG; also called Antibody Number 33
# Target: T1, recombinant YFV E protein (soluble E, sE; YFV Asibi strain) (Yellow fever virus, Asibi strain, UniProt Q6DV88 286-678)
# T1 construct: also called YFV E antigen; YFV E monomer
# T1 sequence (Q6DV88 286-678): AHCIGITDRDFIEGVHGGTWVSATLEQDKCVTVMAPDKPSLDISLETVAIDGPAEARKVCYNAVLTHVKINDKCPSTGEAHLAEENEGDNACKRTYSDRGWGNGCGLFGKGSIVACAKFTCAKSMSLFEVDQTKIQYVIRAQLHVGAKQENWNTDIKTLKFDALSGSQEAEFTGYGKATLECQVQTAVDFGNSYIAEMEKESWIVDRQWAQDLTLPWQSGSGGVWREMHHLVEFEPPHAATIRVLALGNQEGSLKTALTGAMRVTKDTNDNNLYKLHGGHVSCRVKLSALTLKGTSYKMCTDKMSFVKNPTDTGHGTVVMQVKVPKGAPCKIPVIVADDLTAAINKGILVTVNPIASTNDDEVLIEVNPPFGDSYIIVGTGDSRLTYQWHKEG
# Test: BLI monovalent (IgG on tip)
row,Binder,Kd [nM]
1,B1,12.3
2,B2,1.99
3,B3,9.54
4,B4,19.6
5,B5,5.44
6,B6,3.21
7,B7,3.78
8,B8,2.16
9,B9,2.05
10,B10,3.48
11,B11,2.41
12,B12,297
13,B13,37.1
14,B14,10.9
15,B15,5.11
16,B16,9.6
17,B17,0.859
18,B18,3.22
19,B19,12.7
20,B20,> 100
21,B21,18.8
22,B22,17.5
23,B23,> 100

# Source: patent US20240218054A1 (MABLOC, published 2024)
